Experimental data reported in patent US20150344570A1 (published 2015).

T1: FcγRIIb extracellular domain with C-terminal His tag (human, UniProt P31994 43-217)
T1 construct: extracellular domain; expressed in FreeStyle293 cells; analyte in Biacore; also called FcgRIIb; 2b
T1 sequence (looked up): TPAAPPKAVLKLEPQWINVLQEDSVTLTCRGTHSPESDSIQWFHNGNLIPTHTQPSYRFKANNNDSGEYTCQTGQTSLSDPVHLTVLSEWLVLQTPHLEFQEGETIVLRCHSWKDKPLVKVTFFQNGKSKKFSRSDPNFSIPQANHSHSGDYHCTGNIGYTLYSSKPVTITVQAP


Assays:
[1] = target: T2, FcγRIa extracellular domain with C-terminal His tag (human, UniProt P12314 16-292); assay: SPR (Biacore), captured antibody, FcγR as analyte; relative binding
T2 construct: extracellular domain; expressed in FreeStyle293 cells; analyte in Biacore; also called FcgRI; 1a

[2] = target: T1, FcγRIIb extracellular domain with …; assay: as above
FcγRIa = target: T3, FcγRIa (human, UniProt P12314 16-292); assay: SPR (Biacore); He Ab relative to HeCon Ab = 100
T3 construct: extracellular domain; also called FcgRI; 1a
Experimental: Analysis of interaction between objective antibody and the FcγR was carried out using Biacore T100 (GE Healthcare). HBS-EP+ (GE Healthcare) was used as the running buffer, and the measurement temperature was set to 25° C. Chips produced by immobilizing the antigen peptide by the amine coupling method to a Series S Sencor Chip CM5 (GE Healthcare), or alternatively, chips produced by allowing preliminarily biotinylated antigen peptides to interact with and immobilize onto a Series S Sensor Chip SA (certified) (GE Healthcare) were used. Antibodies of interest were captured onto an antigen peptide-immobilized chip, and allowed to interact to each FcγR diluted with running buffer. To regenerate and repeatedly use the chip, the antibodies captured on the chip were washed off by reacting 10 mM glycine-HCl, pH 1.5.

T3 sequence (P12314 16-292): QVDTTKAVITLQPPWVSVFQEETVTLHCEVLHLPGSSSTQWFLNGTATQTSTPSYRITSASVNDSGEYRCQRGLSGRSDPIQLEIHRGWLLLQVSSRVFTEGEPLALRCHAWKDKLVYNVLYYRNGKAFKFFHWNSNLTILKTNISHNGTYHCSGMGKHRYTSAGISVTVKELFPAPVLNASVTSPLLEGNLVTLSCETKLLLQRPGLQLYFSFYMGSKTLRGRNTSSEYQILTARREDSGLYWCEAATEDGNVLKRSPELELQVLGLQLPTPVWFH
T2 sequence (P12314 16-292): as above

He/Con_1a [1] | He/Con_2b [2] | He/Con_1a (FcγRIa) | Binder
– | – | 104 % of control | GpH7-A5/GpH7-B3 variant P271_02A/GpL16-k0 (antibody, human IgG1, kappa, also called He Ab P271_02A) heavy 1: not shown heavy 2: not shown light: DIVMTQSPLSLPVTPGEPASISCQASESLVHSNRNTYLHWYLQKPGQSPQLLIYKVSNRFSGVPDRFSGSGSGTDFTLKISRVEAEDVGVYYCSQNTHVPPTFGQGTKVEIERTVAAPSVFIFPPSDEQLKSGTASVVCLLNNFYPREAKVQWKVDNALQSGNSQESVTEQDSKDSTYSLSSTLTLSKADYEKHKVYACEVTHQGLSSPVTKSFNRGEC
102 % of HeCon Ab (GpH7-A5/GpH7-B3/GpL16-k0 = 100) | 56.9 % of HeCon Ab (GpH7-A5/GpH7-B3/GpL16-k0 = 100) | – | GpH7-A5/GpH7-B3 variant Q295_13S/GpL16-k0 (antibody, human IgG1, kappa, He Ab; IgG1, mutation in one H chain) heavy 1: not shown heavy 2: not shown light: DIVMTQSPLSLPVTPGEPASISCQASESLVHSNRNTYLHWYLQKPGQSPQLLIYKVSNRFSGVPDRFSGSGSGTDFTLKISRVEAEDVGVYYCSQNTHVPPTFGQGTKVEIERTVAAPSVFIFPPSDEQLKSGTASVVCLLNNFYPREAKVQWKVDNALQSGNSQESVTEQDSKDSTYSLSSTLTLSKADYEKHKVYACEVTHQGLSSPVTKSFNRGEC
– | – | 102 % of control | GpH7-A5/GpH7-B3 variant P271_14T/GpL16-k0 (antibody, human IgG1, kappa, also called He Ab P271_14T) heavy 1: not shown heavy 2: not shown light: DIVMTQSPLSLPVTPGEPASISCQASESLVHSNRNTYLHWYLQKPGQSPQLLIYKVSNRFSGVPDRFSGSGSGTDFTLKISRVEAEDVGVYYCSQNTHVPPTFGQGTKVEIERTVAAPSVFIFPPSDEQLKSGTASVVCLLNNFYPREAKVQWKVDNALQSGNSQESVTEQDSKDSTYSLSSTLTLSKADYEKHKVYACEVTHQGLSSPVTKSFNRGEC

More lines, now with the values behind:

Binder | He/Con_1a [1] | He/Con_2b [2] | He/Con_1a (FcγRIa)
GpH7-A5/GpH7-B3 variant K326_12R/GpL16-k0 (antibody, human IgG1, kappa, He Ab; IgG1, mutation in one H chain) heavy 1: not shown heavy 2: not shown light: DIVMTQSPLSLPVTPGEPASISCQASESLVHSNRNTYLHWYLQKPGQSPQLLIYKVSNRFSGVPDRFSGSGSGTDFTLKISRVEAEDVGVYYCSQNTHVPPTFGQGTKVEIERTVAAPSVFIFPPSDEQLKSGTASVVCLLNNFYPREAKVQWKVDNALQSGNSQESVTEQDSKDSTYSLSSTLTLSKADYEKHKVYACEVTHQGLSSPVTKSFNRGEC | 100 % of HeCon Ab (GpH7-A5/GpH7-B3/GpL16-k0 = 100) | 89.2 % of HeCon Ab (GpH7-A5/GpH7-B3/GpL16-k0 = 100) | –
GpH7-A5/GpH7-B3 variant Q295_09D/GpL16-k0 (antibody, human IgG1, kappa, also called He Ab Q295_09D) heavy 1: not shown heavy 2: not shown light: DIVMTQSPLSLPVTPGEPASISCQASESLVHSNRNTYLHWYLQKPGQSPQLLIYKVSNRFSGVPDRFSGSGSGTDFTLKISRVEAEDVGVYYCSQNTHVPPTFGQGTKVEIERTVAAPSVFIFPPSDEQLKSGTASVVCLLNNFYPREAKVQWKVDNALQSGNSQESVTEQDSKDSTYSLSSTLTLSKADYEKHKVYACEVTHQGLSSPVTKSFNRGEC | – | – | 100 % of control
GpH7-A5/GpH7-B3 variant Q295_12R/GpL16-k0 (antibody, human IgG1, kappa, He Ab; IgG1, mutation in one H chain) heavy 1: not shown heavy 2: not shown light: DIVMTQSPLSLPVTPGEPASISCQASESLVHSNRNTYLHWYLQKPGQSPQLLIYKVSNRFSGVPDRFSGSGSGTDFTLKISRVEAEDVGVYYCSQNTHVPPTFGQGTKVEIERTVAAPSVFIFPPSDEQLKSGTASVVCLLNNFYPREAKVQWKVDNALQSGNSQESVTEQDSKDSTYSLSSTLTLSKADYEKHKVYACEVTHQGLSSPVTKSFNRGEC | 100 % of HeCon Ab (GpH7-A5/GpH7-B3/GpL16-k0 = 100) | 65.2 % of HeCon Ab (GpH7-A5/GpH7-B3/GpL16-k0 = 100) | –
GpH7-A5/GpH7-B3 variant P271_16H/GpL16-k0 (antibody, human IgG1, kappa, also called He Ab P271_16H) heavy 1: not shown heavy 2: not shown light: DIVMTQSPLSLPVTPGEPASISCQASESLVHSNRNTYLHWYLQKPGQSPQLLIYKVSNRFSGVPDRFSGSGSGTDFTLKISRVEAEDVGVYYCSQNTHVPPTFGQGTKVEIERTVAAPSVFIFPPSDEQLKSGTASVVCLLNNFYPREAKVQWKVDNALQSGNSQESVTEQDSKDSTYSLSSTLTLSKADYEKHKVYACEVTHQGLSSPVTKSFNRGEC | – | – | 102 % of control
GpH7-A5/GpH7-B3 variant Q295_09D/GpL16-k0 (antibody, human IgG1, kappa, He Ab; IgG1, mutation in one H chain) heavy 1: not shown heavy 2: not shown light: DIVMTQSPLSLPVTPGEPASISCQASESLVHSNRNTYLHWYLQKPGQSPQLLIYKVSNRFSGVPDRFSGSGSGTDFTLKISRVEAEDVGVYYCSQNTHVPPTFGQGTKVEIERTVAAPSVFIFPPSDEQLKSGTASVVCLLNNFYPREAKVQWKVDNALQSGNSQESVTEQDSKDSTYSLSSTLTLSKADYEKHKVYACEVTHQGLSSPVTKSFNRGEC | 100 % of HeCon Ab (GpH7-A5/GpH7-B3/GpL16-k0 = 100) | 60.8 % of HeCon Ab (GpH7-A5/GpH7-B3/GpL16-k0 = 100) | –
GpH7-A5/GpH7-B3 variant P271_03V/GpL16-k0 (antibody, human IgG1, kappa, also called He Ab P271_03V) heavy 1: not shown heavy 2: not shown light: DIVMTQSPLSLPVTPGEPASISCQASESLVHSNRNTYLHWYLQKPGQSPQLLIYKVSNRFSGVPDRFSGSGSGTDFTLKISRVEAEDVGVYYCSQNTHVPPTFGQGTKVEIERTVAAPSVFIFPPSDEQLKSGTASVVCLLNNFYPREAKVQWKVDNALQSGNSQESVTEQDSKDSTYSLSSTLTLSKADYEKHKVYACEVTHQGLSSPVTKSFNRGEC | – | – | 102 % of control
